Changes are numbered by the printed parent chain.
T1: Cyno 4-1BB-Flag, on HEK293-6e cells (Cynomolgus (Macaca fascicularis))
T1 construct: also called Cynomolgus 4-1BB; CL#11070
T1 chain: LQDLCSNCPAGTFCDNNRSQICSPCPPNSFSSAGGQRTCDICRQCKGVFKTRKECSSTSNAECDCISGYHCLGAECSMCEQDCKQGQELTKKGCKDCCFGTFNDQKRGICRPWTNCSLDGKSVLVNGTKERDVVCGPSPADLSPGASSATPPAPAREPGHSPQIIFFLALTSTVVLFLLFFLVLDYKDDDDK

B1: v20037 (antibody, human IgG1, kappa, L234A L235A, V domains shown)
VH: QVQLKESGPGLVAPSQSLSITCTVSGFSLTSYAISWVRQPPGKGLEWLGVIWPGGGTNYNSALKSRLSISKDNSKSQVFLKMNSLQTDDTARYYCARGTGTWYFDVWGAGTTVTVSS
VL: DIQMTQTTSSLSASLGDRVTISCSASQGISNYLNWYQQKPDGTVKLLIYYTSSLHSGVPSRFSGSGSGTDYSLTISNLEPEDIATYYCQQYSDLPWTFGGGTKLEIKR
notes: Mouse-human chimera; also called 6B3
B2: v20032 (antibody, human IgG1, kappa, L234A L235A, V domains shown)
VH: B1 VH with S35N, I51L, T99S
VL: B1 VL with I21F, S56L, D93K
notes: Mouse-human chimera; also called 4E6
B3: v20025 (antibody, human IgG1, kappa, L234A L235A, V domains shown)
VH: QVQLKQSGPGLVQPSQSLSITCTVSGFSLTSYGVHWVRQSPGKGLEWLGVIWSGGSTDYNAAFISRLSISKDNSKSQVFFKMNSLQADDTAIYYCARNPLTATVMDYWGQGTSVTVSS
VL: DIVMTQSQKFMSTSVGDRVSVTCKASQNVGTNVAWYQQKPGQSRTVLIYSASYRHSGVPDRFTGSGSGTDFTLTISNVQSEDLAEYFCQQYNSYPLTFGTGTKLELKR
notes: Mouse-human chimera; also called 2E8
B4: v20029 (antibody, human IgG1, kappa, L234A L235A, V domains shown)
VH: QVQLQESGGGLVKPGGSRKLSCAASGFTFSEFGMHWVRQAPDKGLEWVAYISSGSSTIYYADTVKGRFTISRDNAKNTLFLQMTSLRSEDTAMYYCARDWVDYWGQGTALTVSS
VL: NIVMTQSPKSMSMSVGERVTLSCKASENVGSYVSWYQQKPEKSPKLLIYGASNRYTGVPDRFTGSGSATDFTLTISSVQAEDLADYHCGQSYSYPLTFGAGTKLELKR
notes: Mouse-human chimera; also called 3E7

Target: T2, truncated human 4-1BB domain 3 and 4 only construct (residues 86-255), on cells (human, UniProt Q07011 86-255)
T2 construct: on 293E6 cells co-transfected with mouse 4-1BB; also called 4-1BB domain 3 and 4 only construct (amino acids 86-255)
Assay: flow cytometry, transfected 293E6 cells

T2 sequence (Q07011 86-255): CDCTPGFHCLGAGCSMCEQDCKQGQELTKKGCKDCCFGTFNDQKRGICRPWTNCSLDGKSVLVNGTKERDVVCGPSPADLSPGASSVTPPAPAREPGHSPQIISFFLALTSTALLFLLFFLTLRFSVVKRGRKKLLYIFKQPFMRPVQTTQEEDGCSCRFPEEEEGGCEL

| binding result | Binder |
| --- | --- |
| no binding (tested: 2.5 µg of antibody) | B1 |
| no binding (tested: 2.5 µg of antibody) | B2 |
| no binding (tested: 2.5 µg of antibody) | B3 |
| no binding (tested: 2.5 µg of antibody) | B4 |

Target: T3, human 4-1BB, full-length, expressed on cells (human, UniProt Q07011 24-255)
T3 construct: also called CD137; TNFRSF9
Assay: flow cytometry, transfected 293E6 cells

T3 sequence (Q07011 24-255): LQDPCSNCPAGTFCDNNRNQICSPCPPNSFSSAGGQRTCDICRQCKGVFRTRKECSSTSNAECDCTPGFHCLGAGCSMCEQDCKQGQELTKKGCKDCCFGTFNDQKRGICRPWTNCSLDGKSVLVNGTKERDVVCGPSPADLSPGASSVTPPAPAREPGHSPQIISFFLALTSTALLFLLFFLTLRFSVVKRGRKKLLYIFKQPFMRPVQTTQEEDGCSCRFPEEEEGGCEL

| binding result | Binder |
| --- | --- |
| binds | B1 |
| binds | B2 |
| binds | B3 |
| binds | B4 |

Target: T4, 4-1BB dog (dog 4-1BB ECD-TEV-IgG1 Fc-10x His) (dog)
T4 construct: Uniprot E2R1R9 residues 24-186 fused to TEV site, IgG1 Fc and His tag
Assay: ELISA, coated 4-1BB-Fc

T4 sequence (chain, as listed by the source limits assumed): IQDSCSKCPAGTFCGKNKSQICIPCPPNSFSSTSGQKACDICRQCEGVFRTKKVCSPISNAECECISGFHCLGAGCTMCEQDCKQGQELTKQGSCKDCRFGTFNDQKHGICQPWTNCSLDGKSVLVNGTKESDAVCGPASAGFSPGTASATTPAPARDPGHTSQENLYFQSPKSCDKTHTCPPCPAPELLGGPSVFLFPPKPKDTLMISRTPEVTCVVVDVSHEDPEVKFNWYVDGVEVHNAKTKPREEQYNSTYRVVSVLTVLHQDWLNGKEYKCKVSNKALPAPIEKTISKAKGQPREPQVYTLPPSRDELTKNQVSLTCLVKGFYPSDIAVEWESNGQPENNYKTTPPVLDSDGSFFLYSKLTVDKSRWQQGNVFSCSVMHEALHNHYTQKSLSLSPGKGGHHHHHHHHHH

| binding result | Binder |
| --- | --- |
| no binding | B1 |
| no binding | B2 |
| no binding | B3 |
| binds | B4 |

Target: T5, 4-1BB dog-human (human-dog chimeric 4-1BB ECD-TEV-IgG1 Fc-10x His) (human with dog residues in domain 4)
T5 construct: Human 4-1BB ECD with K115Q, C121R, R134Q, R154S and V156A (already in the entry); also called dog-human chimeric 4-1BB; hybrid 4-1BB
Assay: ELISA, coated 4-1BB-Fc

T5 sequence (chain, as listed by the source mutant limits assumed): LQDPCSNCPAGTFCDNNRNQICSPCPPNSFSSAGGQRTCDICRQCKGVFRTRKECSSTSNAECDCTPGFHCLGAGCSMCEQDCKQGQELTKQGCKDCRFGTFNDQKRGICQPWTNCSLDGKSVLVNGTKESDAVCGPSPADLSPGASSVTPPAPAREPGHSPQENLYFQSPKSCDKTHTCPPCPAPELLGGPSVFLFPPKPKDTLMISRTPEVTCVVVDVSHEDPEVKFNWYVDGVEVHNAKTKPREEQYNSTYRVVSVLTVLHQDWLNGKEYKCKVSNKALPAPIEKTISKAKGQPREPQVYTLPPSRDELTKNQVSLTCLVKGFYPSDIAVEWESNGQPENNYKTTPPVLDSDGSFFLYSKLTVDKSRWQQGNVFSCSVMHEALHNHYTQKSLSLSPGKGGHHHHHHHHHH

| binding result | Binder |
| --- | --- |
| binds | B1 |
| binds | B2 |
| binds | B3 |

Target: T6, 4-1BB human (human 4-1BB ECD-TEV-IgG1 hinge-CH2-CH3-10x His) (human)
T6 construct: 4-1BB residues 24-186 fused to TEV site, IgG1 Fc and His tag; the entry is the whole fusion; also called soluble human 4-1BB-Fc
Assay: ELISA, coated 4-1BB-Fc

T6 sequence (chain, as listed by the source limits assumed): as the sequence (chain, as listed by the source mutant limits assumed) above, with Q92K, R98C, Q111R, S131R, A133V counted along it

| binding result | Binder |
| --- | --- |
| binds | B1 |
| binds | B2 |
| binds | B3 |
| binds | B4 |

Target: T1, Cyno 4-1BB-Flag, on HEK293-6e cells
Assay: CellInsight cell binding, transfected HEK293-6e

| binding result | Binder |
| --- | --- |
| binds | B3 |
| binds | B4 |

Target: T7, Mouse 4-1BB-Flag, on HEK293-6e cells (Mouse (Mus musculus), UniProt P20334 24-208)
T7 construct: also called CL#11063
Assay: CellInsight cell binding, transfected HEK293-6e

T7 sequence (P20334 other isoform, or with tags, fused parts or gaps limits assumed): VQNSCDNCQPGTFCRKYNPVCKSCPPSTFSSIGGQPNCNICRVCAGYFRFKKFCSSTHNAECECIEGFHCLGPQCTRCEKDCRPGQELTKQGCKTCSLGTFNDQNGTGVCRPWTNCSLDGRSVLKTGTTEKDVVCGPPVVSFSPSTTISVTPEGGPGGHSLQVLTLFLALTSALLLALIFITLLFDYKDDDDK

| binding result | Binder |
| --- | --- |
| no binding | B1 |
| no binding | B2 |
| no binding | B3 |
| no binding | B4 |
